Target: Protein G bound to porous resin beads (Pierce Biotechnology, Protein G UltraLink resin) (UniProt P19909)
Assay: 100 ug IgG mixed with 10 uL Protein G resin bead suspension; supernatant analysed by SDS-PAGE, band pixels

human immunoglobulin G (IgG) (antibody)
residual amount of antibody (unbound IgG remaining in the supernatant): 3%
